This note sets out measurements from publication PMC11655841 (Cell Death & Disease, 2024).

The target in series [1] is DARPin B9 LZ (DARPin B9 dimerized via a leucine zipper) (yeast) (UniProt P03069). Description: ITC; target proteins (p53 family domains) titrated to constant concentrations of DARPin; 25 °C; 50 mM HEPES pH 7.4, 150 mM NaCl, 0.5 mM TCEP; MicroCal VP-ITC. A general note: ITC needs no label: the signal is the heat of the interaction.
For series [2], the target named is DARPin 1800–1800 (DARPin 1800 fused to another DARPin 1800 via a (G4S)4 linker). Described as above.
Series [3] has as its target DARPin B9. The series is described as above.
Series [4] deals with DARPin 1800. The series is described as above.
Series [5] has as its target DARPin 1800 LZ (DARPin 1800 dimerized via a leucine zipper) (yeast) (UniProt P03069). The description is as above.
The target of series [6] is DARPin B9-B9 (DARPin B9 fused to another DARPin B9 via a (G4S)4 linker). The series is described as above.
Series [7] deals with DARPin B9. The series can be described thus: crystal structure; complex of DARPin and p73 domain mixed from purified proteins, isolated by SEC; sitting drop at 20 °C, 30% PEG2000MME, 0.15 M potassium bromide. (In gel filtration, larger molecules generally elute earlier.)
Series [8] deals with the molecule itself. The description is as above.
For series [9], the target named is DARPin 1800. Described as above. Conditions: scale: DARPin 1800 per p73 OD.

B1: p73 DBD-OD-SAM (amino acids 112–550 of TAp73α) (domain or fragment)
chain: APVIPSNTDYPGPHHFEVTFQQSSTAKSATWTYSPLLKKLYCQIAKTCPIQIKVSTPPPPGTAIRAMPVYKKAEHVTDVVKRCPNHELGRDFNEGQSAPASHLIRVEGNNLSQYVDDPVTGRQSVVVPYEPPQVGTEFTTILYNFMCNSSCVGGMNRRPILIIITLEMRDGQVLGRRSFEGRICACPGRDRKADEDHYREQQALNESSAKNGAASKRAFKQSPPAVPALGAGVKKRRHGDEDTYYLQVRGRENFEILMKLKESLELMELVPQPLVDSYRQQQQLLQRPSHLQPPSYGPVLSPMNKVHGGMNKLPSVNQLVGQPPPHSSAATPNLGPVGPGMLNNHGHAVPANGEMSSSHSAQSMVSGSHCTPPPPYHADPSLVSFLTGLGCPNCIEYFTSQGLQSIYHLQNLTIEDLGALKIPEQYRMTIWRGLQDLKQ
As to B1, the Kd (commonly the concentration at which binding is half-saturated) in series [1] amounted to 64 nM; in series [2], 13 nM; in series [3], 309 nM; in [4], 67 nM; in series [5], 4 nM; in [6] it was 46 nM.

B2: p73 SAM domain (aa 489–550 of TAp73α) (domain or fragment)
chain: ADPSLVSFLTGLGCPNCIEYFTSQGLQSIYHLQNLTIEDLGALKIPEQYRMTIWRGLQDLKQ
Turning to B2, in series [7], the stoichiometry N (p73 SAM domain per DARPin B9) stood at 1. Besides, the Kd in [3] was 58.8 nM.
Regarding DEDTYYLQVRGRENFEILMKLKESLELMELVPQPLVDSYRQQQQLLQR (domain or fragment, UniProt O15350 351-398, looked up) [p73 oligomerization domain (aa 351–398 of TAp73α)], in series [8], the binding result is reported as “binds”. Further, in series [9], the stoichiometry N (commonly the number of molecules, sites or subunits per partner or assembly) is 2. Besides, in series [4], the Kd was found to be 94.5 nM.
